This assay deals with human growth hormone (hGH) with the N-terminal phenylalanine, expressed and secreted from plasmid phGH4R (human) (UniProt P01241). In words: cell-based or functional assay.

1 molecule from US20030124664A1 can be followed below.

Chain of human growth hormone (hGH) with the N-terminal phenylalanine, expressed and secreted from plasmid phGH4R (human) (P01241 27-217): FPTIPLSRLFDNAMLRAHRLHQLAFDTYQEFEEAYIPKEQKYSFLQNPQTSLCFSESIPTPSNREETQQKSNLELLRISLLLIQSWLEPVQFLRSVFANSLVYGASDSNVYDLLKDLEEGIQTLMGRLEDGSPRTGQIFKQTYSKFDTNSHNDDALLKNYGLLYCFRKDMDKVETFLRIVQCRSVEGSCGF

B1: native-sequence aminopeptidase b2324 (product of the E. coli chromosomal yfcK gene) (enzyme)
chain: MRSLTHIAKIEPPPVRRVTYVKHYSIQPANLEFNAEGTPVSRDFDDVYFSNDNGLEETRYVFLGGNQLEVRFPEHPHPLFVVAESGFGTGLNFLTLWQAFDQFREAHPQAQLQRLHFISFEKFPLTRADLALAHQHWPELAPWAEQLQAQWPMPLPGCHRLLLDEGRVTLDLWFGDINELTSQLDDSLNQKVDAWFLDGFAPAKNPDMWTQNLFNAMARLARPGGTLATFTSAGFVRRGLQDAGFTMQKRKGFGRKREMLCGVMEQTLPLPCSAPWFNRTGSSKREAAIIGGGIASALLSLALLRRGWQVTLYCADEAPALGASGNRQGALYPLLSKHDEALNRFFSNAFTFARRFYDQLPVKFDHDWCGVTQLGWDEKSQHKIAQMLSMDLPAELAVAVEANAVEQITGVATNCSGITYPQGGWLCPAELTRNVLELAQQQGLQIYYQYQLQNLSRKDDCWLLNFAGDQQATHSVVVLANGHQISRFSQTSTLPVYSVAGQVSHIPTTPELAELKQVLCYDGYLTPQNPANQHHCIGASYHRGSEDTAYSEDDQQQNRQRLIDCFPQAQWAKEVDVSDKEARCGVRCATRDHLPMVGNVPDYEATLVEYASLAEQKDEAVSAPVFDDLFMFAALGSRGLCSAPLCAEILAAQMSDEPIPMDASTLAALNPNRLWVRKLLKGKAVKAG
Molecule B1 yielded an Area % des-phe hGH, control strain lysate, 37° C., 0 h (LC-MS) of 0.36 Area %; an Area % des-phe hGH, control strain lysate, 37° C., 15 h (LC-MS) of 46.8 Area %; an Area % des-phe hGH, control strain lysate, 37° C., 24 h (LC-MS) of 55.3 Area %; an Area % des-phe hGH, control strain lysate, RT, 0 h (LC-MS) of 0.36 Area %. This molecule also had an Area % des-phe hGH, control strain lysate, RT, 15 h (LC-MS) of 1.24 Area %; an Area % des-phe hGH, control strain lysate, RT, 24 h (LC-MS) of 2.15 Area %; an Area % des-phe hGH, control strain lysate, RT, 42 h (LC-MS) of 3 Area %.
